In general, stoichiometry N refers to the number of molecules, sites or subunits per partner or assembly.

Among the data in article PMC7978432 are stoichiometry N values, retold here.

The target of this assay is SARS-CoV-2 S2GΔHR2-5GS-1TD0 (SARS-CoV-2 | not stated) (UniProt P0DTC2). Put plainly: native gel or EMSA.

In the case of “SARS-CoV-2 S2GΔHR2-5GS-1TD0 (from UniProt P0DTC2 14-1149)”, the stoichiometry N was 3.
